Experimental findings from publication PMC2935386, “Dissecting the Relation between a Nuclear Receptor and GATA: Binding Affinity Studies of Thyroid Hormone Receptor and GATA2 on TSHβ Promoter” (PLoS ONE, 2010) are described below.

This experiment addresses T1, human TRβ1ΔAB (TR DBD-LBD), thyroid hormone receptor β1 residues 102-461 (human, UniProt P10828-1 102-461).
T1 construct: Holo form (T3/TR) made by adding T3 in 3 times molar excess; also called TR DL; TRβ1 DL
T1 sequence (looked up): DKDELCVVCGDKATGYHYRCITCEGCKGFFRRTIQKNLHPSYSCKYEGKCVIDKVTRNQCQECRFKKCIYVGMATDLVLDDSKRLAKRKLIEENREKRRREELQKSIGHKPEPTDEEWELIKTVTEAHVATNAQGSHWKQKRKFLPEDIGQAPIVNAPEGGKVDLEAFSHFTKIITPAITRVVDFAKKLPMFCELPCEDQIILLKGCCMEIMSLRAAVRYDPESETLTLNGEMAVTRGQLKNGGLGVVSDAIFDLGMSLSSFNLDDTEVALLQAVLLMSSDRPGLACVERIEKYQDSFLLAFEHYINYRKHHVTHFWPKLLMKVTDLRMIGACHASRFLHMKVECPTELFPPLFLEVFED
The experiment is described as follows: fluorescence polarisation; fluorescence anisotropy; 10nM fluorescein-labeled GATA2-Zf titrated with unlabeled, unliganded TR DBD-LBD or TR DBD, 1nM to 10.000nM; 10°C, 50mM NaCl, 20mM Hepes pH8.0, 3mM dithiothreitol, 5% glycerol. The following applies: both partners purified. In general terms: In fluorescence polarisation assays a small probe gives low polarisation when free and higher when bound to something large.

B1: fluorescein-labelled zinc finger region of GATA2 (GATA2-Zf), residues 291-412 (domain or fragment)
chain: not shown
modifications: fluorescein (fluorescein-isothiocyanate, three times molar excess; site not stated)
notes: GATA2, zinc finger region, residues 291-412; removal of the His tag is surmised from that; Two vectors are named (pET31a, pET28a(+)); also called fluorophore-labelled GATA2-Zf; fluorescein-labeled GATA2-Zf
One may read the Kd as the constant that tells how readily two partners part at equilibrium. Regarding B1, the Kd was determined as 1170 nM.
